Measured values from patent US20240279278A1, “NMU RECEPTOR 2 AGONISTS” (Boehringer Ingelheim International GmbH, priority 2023, published 2024).
Starred links: 1 amine or outer side, 2 acyl side, 3 side chain; linkers in the order of their positions; H or OH if unused. Non-standard residues stand in square brackets, D forms with d. *: point of attachment. Pipz(1-CH2CO,4-CH2CH2NH) = O=C(CN1CCN(CCN[*:1])CC1)[*:2]; C18 diacid = O=C(O)CCCCCCCCCCCCCCCCC(=O)*; γGlu = O=C(O)[C@H](CCC(=O)[*:2])N[*:1]; 2Pal = N[C@@H](Cc1ccccn1)C(=O)O; 3Pal = N[C@@H](Cc1cccnc1)C(=O)O; 4Pal = N[C@@H](Cc1ccncc1)C(=O)O; NMeL = CN[C@@H](CC(C)C)C(=O)O; NMeA = CN[C@@H](C)C(=O)O; Nle = CCCC[C@H](N)C(=O)O; Sar = CNCC(=O)O

T1: human neuromedin U receptor 1 (human, UniProt Q9HB89 24-426)
T1 sequence (looked up): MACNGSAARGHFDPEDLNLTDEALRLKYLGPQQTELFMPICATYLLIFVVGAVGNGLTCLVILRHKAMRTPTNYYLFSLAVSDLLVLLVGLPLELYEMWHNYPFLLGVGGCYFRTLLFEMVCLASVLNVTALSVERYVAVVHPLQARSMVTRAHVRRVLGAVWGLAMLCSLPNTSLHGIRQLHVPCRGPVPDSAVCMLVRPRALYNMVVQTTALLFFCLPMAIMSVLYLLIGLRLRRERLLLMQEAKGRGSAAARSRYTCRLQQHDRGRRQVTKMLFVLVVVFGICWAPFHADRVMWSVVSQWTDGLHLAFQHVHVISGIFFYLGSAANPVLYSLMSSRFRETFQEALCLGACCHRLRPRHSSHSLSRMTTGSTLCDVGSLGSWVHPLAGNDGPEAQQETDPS

B1: C20DA-gGlu3-Sar9-AEPipAc-Tyr-Phe-NMeLeu-Nle-Arg-NMeAla-Arg-Gly-NH2 (peptide)
peptide: EEEXXXXXXXXXXYFLXRARG
HELM: PEPTIDE1{[O=C(O)CCCCCCCCCCCCCCCCCCC(=O)[*:2]].[gGlu].[gGlu].[gGlu].[Sar].[Sar].[Sar].[Sar].[Sar].[Sar].[Sar].[Sar].[Sar].[O=C(CN1CCN(CCN[*:1])CC1)[*:2]].Y.F.[meL].[Nle].R.[meA].R.G.[am]}$$$$V2.0
SMILES: CCCC[C@H](NC(=O)[C@H](CC(C)C)N(C)C(=O)[C@H](Cc1ccccc1)NC(=O)[C@H](Cc1ccc(O)cc1)NC(=O)CN1CCN(CCNC(=O)CN(C)C(=O)CN(C)C(=O)CN(C)C(=O)CN(C)C(=O)CN(C)C(=O)CN(C)C(=O)CN(C)C(=O)CN(C)C(=O)CN(C)C(=O)CC[C@H](NC(=O)CC[C@H](NC(=O)CC[C@H](NC(=O)CCCCCCCCCCCCCCCCCCC(=O)O)C(=O)O)C(=O)O)C(=O)O)CC1)C(=O)N[C@@H](CCCNC(=N)N)C(=O)N(C)[C@@H](C)C(=O)N[C@@H](CCCNC(=N)N)C(=O)NCC(N)=O
B2: C20DA-gGlu3-Sar12-AEPipAc-Tyr-Phe-NMeLeu-Nle-Dbu-NMeAla-Arg-Gly-NH2 (peptide)
peptide: EEEXXXXXXXXXXXXXYFLXXARG
HELM: PEPTIDE1{[O=C(O)CCCCCCCCCCCCCCCCCCC(=O)[*:2]].[gGlu].[gGlu].[gGlu].[Sar].[Sar].[Sar].[Sar].[Sar].[Sar].[Sar].[Sar].[Sar].[Sar].[Sar].[Sar].[O=C(CN1CCN(CCN[*:1])CC1)[*:2]].Y.F.[meL].[Nle].[Dab].[meA].R.G.[am]}$$$$V2.0
SMILES: CCCC[C@H](NC(=O)[C@H](CC(C)C)N(C)C(=O)[C@H](Cc1ccccc1)NC(=O)[C@H](Cc1ccc(O)cc1)NC(=O)CN1CCN(CCNC(=O)CN(C)C(=O)CN(C)C(=O)CN(C)C(=O)CN(C)C(=O)CN(C)C(=O)CN(C)C(=O)CN(C)C(=O)CN(C)C(=O)CN(C)C(=O)CN(C)C(=O)CN(C)C(=O)CN(C)C(=O)CC[C@H](NC(=O)CC[C@H](NC(=O)CC[C@H](NC(=O)CCCCCCCCCCCCCCCCCCC(=O)O)C(=O)O)C(=O)O)C(=O)O)CC1)C(=O)N[C@@H](CCN)C(=O)N(C)[C@@H](C)C(=O)N[C@@H](CCCNC(=N)N)C(=O)NCC(N)=O
B3: C18DA-gGlu2-Sar9-AEPipAc-Tyr-Phe-NMeLeu-Nle-Arg-NMeAla-Arg-Gly-NH2 (peptide)
peptide: EEXXXXXXXXXXYFLXRARG
HELM: PEPTIDE1{[O=C(O)CCCCCCCCCCCCCCCCC(=O)[*:2]].[gGlu].[gGlu].[Sar].[Sar].[Sar].[Sar].[Sar].[Sar].[Sar].[Sar].[Sar].[O=C(CN1CCN(CCN[*:1])CC1)[*:2]].Y.F.[meL].[Nle].R.[meA].R.G.[am]}$$$$V2.0
SMILES: CCCC[C@H](NC(=O)[C@H](CC(C)C)N(C)C(=O)[C@H](Cc1ccccc1)NC(=O)[C@H](Cc1ccc(O)cc1)NC(=O)CN1CCN(CCNC(=O)CN(C)C(=O)CN(C)C(=O)CN(C)C(=O)CN(C)C(=O)CN(C)C(=O)CN(C)C(=O)CN(C)C(=O)CN(C)C(=O)CN(C)C(=O)CC[C@H](NC(=O)CC[C@H](NC(=O)CCCCCCCCCCCCCCCCC(=O)O)C(=O)O)C(=O)O)CC1)C(=O)N[C@@H](CCCNC(=N)N)C(=O)N(C)[C@@H](C)C(=O)N[C@@H](CCCNC(=N)N)C(=O)NCC(N)=O
B4: C20DA-gGlu3-Sar9-AEPipAc-Tyr-Phe-NMeLeu-Nle-Dbu-Pro-Arg-Gly-NH2 (peptide)
peptide: EEEXXXXXXXXXXYFLXXPRG
HELM: PEPTIDE1{[O=C(O)CCCCCCCCCCCCCCCCCCC(=O)[*:2]].[gGlu].[gGlu].[gGlu].[Sar].[Sar].[Sar].[Sar].[Sar].[Sar].[Sar].[Sar].[Sar].[O=C(CN1CCN(CCN[*:1])CC1)[*:2]].Y.F.[meL].[Nle].[Dab].P.R.G.[am]}$$$$V2.0
SMILES: CCCC[C@H](NC(=O)[C@H](CC(C)C)N(C)C(=O)[C@H](Cc1ccccc1)NC(=O)[C@H](Cc1ccc(O)cc1)NC(=O)CN1CCN(CCNC(=O)CN(C)C(=O)CN(C)C(=O)CN(C)C(=O)CN(C)C(=O)CN(C)C(=O)CN(C)C(=O)CN(C)C(=O)CN(C)C(=O)CN(C)C(=O)CC[C@H](NC(=O)CC[C@H](NC(=O)CC[C@H](NC(=O)CCCCCCCCCCCCCCCCCCC(=O)O)C(=O)O)C(=O)O)C(=O)O)CC1)C(=O)N[C@@H](CCN)C(=O)N1CCC[C@H]1C(=O)N[C@@H](CCCNC(=N)N)C(=O)NCC(N)=O
B5: C20DA-gGlu3-Sar12-AEPipAc-Tyr-Phe-NMeLeu-Nle-Arg-NMeAla-Arg-Gly-NH2 (peptide)
peptide: EEEXXXXXXXXXXXXXYFLXRARG
HELM: PEPTIDE1{[O=C(O)CCCCCCCCCCCCCCCCCCC(=O)[*:2]].[gGlu].[gGlu].[gGlu].[Sar].[Sar].[Sar].[Sar].[Sar].[Sar].[Sar].[Sar].[Sar].[Sar].[Sar].[Sar].[O=C(CN1CCN(CCN[*:1])CC1)[*:2]].Y.F.[meL].[Nle].R.[meA].R.G.[am]}$$$$V2.0
SMILES: CCCC[C@H](NC(=O)[C@H](CC(C)C)N(C)C(=O)[C@H](Cc1ccccc1)NC(=O)[C@H](Cc1ccc(O)cc1)NC(=O)CN1CCN(CCNC(=O)CN(C)C(=O)CN(C)C(=O)CN(C)C(=O)CN(C)C(=O)CN(C)C(=O)CN(C)C(=O)CN(C)C(=O)CN(C)C(=O)CN(C)C(=O)CN(C)C(=O)CN(C)C(=O)CN(C)C(=O)CC[C@H](NC(=O)CC[C@H](NC(=O)CC[C@H](NC(=O)CCCCCCCCCCCCCCCCCCC(=O)O)C(=O)O)C(=O)O)C(=O)O)CC1)C(=O)N[C@@H](CCCNC(=N)N)C(=O)N(C)[C@@H](C)C(=O)N[C@@H](CCCNC(=N)N)C(=O)NCC(N)=O
B6: C18DA-gGlu3-Sar15-AEPipAc-Tyr-Phe-NMeLeu-Nle-3Pal-NMeAla-Arg-Gly-NH2 (peptide)
peptide: {C18 diacid}-[γGlu][γGlu][γGlu][Sar][Sar][Sar][Sar][Sar][Sar][Sar][Sar][Sar][Sar][Sar][Sar][Sar][Sar][Sar][Pipz(1-CH2CO,4-CH2CH2NH)]YF[NMeL][Nle][3Pal][NMeA]RG-NH2
SMILES: CCCC[C@H](NC(=O)[C@H](CC(C)C)N(C)C(=O)[C@H](Cc1ccccc1)NC(=O)[C@H](Cc1ccc(O)cc1)NC(=O)CN1CCN(CCNC(=O)CN(C)C(=O)CN(C)C(=O)CN(C)C(=O)CN(C)C(=O)CN(C)C(=O)CN(C)C(=O)CN(C)C(=O)CN(C)C(=O)CN(C)C(=O)CN(C)C(=O)CN(C)C(=O)CN(C)C(=O)CN(C)C(=O)CN(C)C(=O)CN(C)C(=O)CC[C@H](NC(=O)CC[C@H](NC(=O)CC[C@H](NC(=O)CCCCCCCCCCCCCCCCC(=O)O)C(=O)O)C(=O)O)C(=O)O)CC1)C(=O)N[C@@H](Cc1cccnc1)C(=O)N(C)[C@@H](C)C(=O)N[C@@H](CCCNC(=N)N)C(=O)NCC(N)=O
B7: C18DA-gGlu3-Sar15-AEPipAc-Tyr-Phe-NMeLeu-Nle-4Pal-NMeAla-Arg-Gly-NH2 (peptide)
peptide: {C18 diacid}-[γGlu][γGlu][γGlu][Sar][Sar][Sar][Sar][Sar][Sar][Sar][Sar][Sar][Sar][Sar][Sar][Sar][Sar][Sar][Pipz(1-CH2CO,4-CH2CH2NH)]YF[NMeL][Nle][4Pal][NMeA]RG-NH2
SMILES: CCCC[C@H](NC(=O)[C@H](CC(C)C)N(C)C(=O)[C@H](Cc1ccccc1)NC(=O)[C@H](Cc1ccc(O)cc1)NC(=O)CN1CCN(CCNC(=O)CN(C)C(=O)CN(C)C(=O)CN(C)C(=O)CN(C)C(=O)CN(C)C(=O)CN(C)C(=O)CN(C)C(=O)CN(C)C(=O)CN(C)C(=O)CN(C)C(=O)CN(C)C(=O)CN(C)C(=O)CN(C)C(=O)CN(C)C(=O)CN(C)C(=O)CC[C@H](NC(=O)CC[C@H](NC(=O)CC[C@H](NC(=O)CCCCCCCCCCCCCCCCC(=O)O)C(=O)O)C(=O)O)C(=O)O)CC1)C(=O)N[C@@H](Cc1ccncc1)C(=O)N(C)[C@@H](C)C(=O)N[C@@H](CCCNC(=N)N)C(=O)NCC(N)=O
B8: C18DA-gGlu3-Sar15-AEPipAc-Tyr-Phe-NMeLeu-Nle-2Pal-Pro-Arg-Gly-NH2 (peptide)
peptide: {C18 diacid}-[γGlu][γGlu][γGlu][Sar][Sar][Sar][Sar][Sar][Sar][Sar][Sar][Sar][Sar][Sar][Sar][Sar][Sar][Sar][Pipz(1-CH2CO,4-CH2CH2NH)]YF[NMeL][Nle][2Pal]PRG-NH2
SMILES: CCCC[C@H](NC(=O)[C@H](CC(C)C)N(C)C(=O)[C@H](Cc1ccccc1)NC(=O)[C@H](Cc1ccc(O)cc1)NC(=O)CN1CCN(CCNC(=O)CN(C)C(=O)CN(C)C(=O)CN(C)C(=O)CN(C)C(=O)CN(C)C(=O)CN(C)C(=O)CN(C)C(=O)CN(C)C(=O)CN(C)C(=O)CN(C)C(=O)CN(C)C(=O)CN(C)C(=O)CN(C)C(=O)CN(C)C(=O)CN(C)C(=O)CC[C@H](NC(=O)CC[C@H](NC(=O)CC[C@H](NC(=O)CCCCCCCCCCCCCCCCC(=O)O)C(=O)O)C(=O)O)C(=O)O)CC1)C(=O)N[C@@H](Cc1ccccn1)C(=O)N1CCC[C@H]1C(=O)N[C@@H](CCCNC(=N)N)C(=O)NCC(N)=O
B9: C20DA-gGlu3-Sar9-AEPipAc-Tyr-Phe-NMeLeu-Nle-Dbu-NMeAla-Arg-Gly-NH2 (peptide)
peptide: EEEXXXXXXXXXXYFLXXARG
HELM: PEPTIDE1{[O=C(O)CCCCCCCCCCCCCCCCCCC(=O)[*:2]].[gGlu].[gGlu].[gGlu].[Sar].[Sar].[Sar].[Sar].[Sar].[Sar].[Sar].[Sar].[Sar].[O=C(CN1CCN(CCN[*:1])CC1)[*:2]].Y.F.[meL].[Nle].[Dab].[meA].R.G.[am]}$$$$V2.0
SMILES: CCCC[C@H](NC(=O)[C@H](CC(C)C)N(C)C(=O)[C@H](Cc1ccccc1)NC(=O)[C@H](Cc1ccc(O)cc1)NC(=O)CN1CCN(CCNC(=O)CN(C)C(=O)CN(C)C(=O)CN(C)C(=O)CN(C)C(=O)CN(C)C(=O)CN(C)C(=O)CN(C)C(=O)CN(C)C(=O)CN(C)C(=O)CC[C@H](NC(=O)CC[C@H](NC(=O)CC[C@H](NC(=O)CCCCCCCCCCCCCCCCCCC(=O)O)C(=O)O)C(=O)O)C(=O)O)CC1)C(=O)N[C@@H](CCN)C(=O)N(C)[C@@H](C)C(=O)N[C@@H](CCCNC(=N)N)C(=O)NCC(N)=O

molecular target: T1, human neuromedin U receptor 1; assay: cell-based or functional assay

| EC50 (hNMUR1) buffer [nM] | Binder |
| --- | --- |
| 440 | B1 |
| > 1000 | B2 |
| 550 | B3 |
| 540 | B4 |
| 670 | B5 |
| > 1000 | B6 |
| > 1000 | B7 |
| > 1000 | B8 |
| > 1000 | B9 |
